In paper PMC5912696:

Molecular target: Q394X truncation of the ER-tethered Ste6 NBD2 chimera (yeast)
Assay: co-IP

- fold above background: 2 fold
Substance: Hsp104 (from UniProt P31539 1-908) (natural protein)
